This note sets out measurements from US6461867.

The target of this assay is SEV-9 peptide (Sendai virus nucleoprotein 324-332) (Sendai virus).

B1: soluble H-2K^b (K^bsol), empty heterodimer of truncated K^b heavy chain and murine β-2 microglobulin (other)
alpha: GPHSLRYFVTAVSRPGLGEPRYMEVGYVDDTEFVRFDSDAENPRYEPRARWMEQEGPEYWERETQKAKGNEQSFRVDLRTLLGYYNQSKGGSHTIQVISGCEVGSDGRLLRGYQQYAYDGCDYIALNEDLKTWTAADMAALITKHKWEQAGEAERLRAYLEGTCVEWLRRYLKNGNATLLRTDSPKAHVTHHSRPEDKVTLRCWALGFYPADITLTWQLNGEELIQDMELVETRPAGDGTFQKWASVVVPLGKEQYYTCHVYHQGLPEPLTLRW
beta: IQKTPQIQVYSRHPPENGKPNILNCYVTQFHPPHIEIQMLKNGKKIPKVEMSDMSFSKDWSFYILAHTEFTPTETDTYACRVKHASMAEPKTVYWDRDM
The molecule B1 gave a Kd of 2.7 nM.

In general, Kd refers to the concentration at which binding is half-saturated. A high value points to weaker binding.
